In test [1] the target is Coagulation factor XIa.
The target in test [2] is Coagulation factor XIa. Nature of the test: enzyme inhibition kinetics; XIa (0.5 nM) preincubated with peptide 30 min at 37 °C, chromogenic substrate S2366; 50 mM Tris pH 7.4, 140 mM NaCl, 5 mM CaCl2, 0.1% BSA; double reciprocal plots, mixed inhibition.

In turn, “Schistosoma Kunitz peptide Shp4 (Schistosoma haematobium peptide-repeat 4) (domain or fragment)” had an inhibition of XIa activity on a chromogenic substrate, concentration dependent in test [1] of 7.1 nM. In test [2], this substance yielded a Ki of 3.35 nM and a Ki' (towards the enzyme-substrate complex) of 1.64 nM.

(Values after paper PMC12237034.)
